Assay [1] concerns the target SARS-CoV-2 S protein, full length, wild type (on pseudovirus, authentic virus hCoV-19/Taiwan/4/2020 (SARS-CoV-2, UniProt P0DTC2 14-1273)). The experiment in a line: cell-based or functional assay.
Assay [2] concerns the target SARS-COV-2 RBD-His protein (SARS-CoV-2, UniProt P0DTC2 319-541).

Where a chain is given by its changes, count along the chain named.

Broadly, the Kd is the constant that tells how readily two partners part at equilibrium. Read a low Kd as higher affinity. By koff is commonly meant the rate constant with which the complex falls apart. Low values mean a long-lived complex, high ones a short-lived complex. By kon is commonly meant the second-order rate constant of association. A high value points to faster complex formation.

B1: RBD-chAb-1 (antibody, V domains shown)
VH: EVQLQQSGPQLVRPGASMKISCKASGYSFTTYWMHWVKQRPGQGLQWIGMIDPSDSETRLNQKFKDKATLTVDKSSSTAYMQLSSPTSEDSAVYYCARDFDYDRTMDYWGQGTSVTVSS
VL: DIVMSQSPSSLAVSVGEKVTMSCKSSQSLLFSSSQKNYLAWYQQKAGQSPKLLIFWASTRESGVPDRFTGSGSGTDFTLTISSVKAEDLAIYYCKQYYKYPLTFGAGTKLDIK
Consider B1, for which, in assay [1], the PRNT50 is below 36 ng/mL.

B2: RBD-chAb-45 (antibody, V domains shown)
VH: EVQLQQSGPELVKPGASVKISCKTSGYTFTEYTIYWVKQSLGKSLEWIGGNNPNNDDTTYKQFFKGKATLTVDKSSSTAYMELRSLTSEDSAVYYCARDGYPYYYALDFWGQGTSVTVSS
VL: DILMTQSQKFMSTSVGDRVSVTCKSSQNVGTNVAWYQQKPGQSPKALIYSASYRYSGVPDHFTGSGSGTDFTLTISNVQSADLAEYFCQQYNNYPWTFGGGTKLDIK
In assay [2], B2 displayed a Kd of 0.282 nM, a dissociation rate constant (koff) of 0.000282 s⁻¹ and an association rate constant (kon) of 997000 M⁻¹ s⁻¹. Moreover, in assay [1], the “pseudovirus neutralization assay IC50” value amounted to 2.3 ng/mL.

B3: RBD-chAb-51 (antibody, V domains shown)
VH: B2 VH with V18A, I34M, L41H, N51I, D56G, K61N, F63T, Y103F, F109Y, T114I
VL: DIVMTQSQKFMSTSVGDRVSVTCKARQIVGTNVAWYQQKPGQSPKALIYSASYRYSGVPDRFTGSGSGTDFTLTITNVHSEDLAEFFCHQYNSYPWTFGGGTKLDIK
As to B3, in assay [1], the “pseudovirus neutralization assay IC50” value is 0.98 ng/mL.

B4: RBD-chAb-15 (antibody, V domains shown)
VH: EVQLEESGPGLVQPSQSLSITCTVSDFSLTTYGVHWVRQSPGKGLEWLGVIWSGGSTDYNAAFISRLSISKDNSKSQVFFKMNSLQTNDTAIYYCARMGDGYYVGAMDYWGQGTSVTVSS
VL: DIQLTQSPAILSVSPGERVSFSCRASQSIGTSIHWYQQRTNGSPRHLIKYASESISGIPSRFSGSGSGTDFTLTINGVESEDIADYYCQQGHNWPLTFGAGTKLDIK
Take B4: in assay [1], the PRNT50 was below 36 ng/mL.

B5: RBD-chAb-28 (antibody, V domains shown)
VH: QVQLQQPGTELVMPGASVKMSCKASGYTFTDYYLHWMKQRPGQGLEWIGAIDSSDSYTDYNQNFKGKATLTVDESSSTAYMHLSSLTSEDSAVYYCARGKDAYDRRPWFAYWGQGTLVTVSA
VL: DIQMTQTTSSLSASLGDRVTISCSASQGIRYYLNWYQQKPDGTVKLLIYYTSNLHSGVPSRFSGSGSGTDYSLTISNLEPEDIATYYCQQYNKLPYTFGGGTKLDIK
Take B5: the “pseudovirus neutralization assay IC50” value in assay [1] came to 8.75 ng/mL.

The values above are taken from patent publication US20250270296A1 (ACADEMIA SINICA, published 2025).
